One series concerns T1, Nuclease M P481R P481R.
T1 sequence: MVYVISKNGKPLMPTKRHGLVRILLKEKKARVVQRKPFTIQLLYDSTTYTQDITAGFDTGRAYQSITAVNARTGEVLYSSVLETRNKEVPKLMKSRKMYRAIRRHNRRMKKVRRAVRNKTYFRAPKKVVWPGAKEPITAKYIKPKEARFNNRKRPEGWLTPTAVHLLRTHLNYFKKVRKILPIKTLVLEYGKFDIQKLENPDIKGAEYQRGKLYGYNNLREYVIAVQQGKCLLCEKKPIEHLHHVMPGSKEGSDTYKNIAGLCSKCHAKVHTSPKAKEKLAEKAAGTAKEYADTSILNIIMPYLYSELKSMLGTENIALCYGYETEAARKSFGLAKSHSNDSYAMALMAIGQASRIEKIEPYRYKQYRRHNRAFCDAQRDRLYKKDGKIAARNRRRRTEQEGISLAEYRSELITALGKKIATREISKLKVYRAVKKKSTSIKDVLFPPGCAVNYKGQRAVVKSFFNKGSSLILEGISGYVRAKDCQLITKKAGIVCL
In words: cell_activity. The settings on record: PAM TTAAA; HEK293T.

A further series relates to T2, Nuclease M E401R E401R.
T2 sequence: T1 sequence with E401R, R481P
As to the kind of experiment: cell_activity. The settings on record: PAM TTAAA; HEK293T.

For a further series, the target named is T3, Nuclease K D582R/G42R (D582R,G42R).
T3 chain: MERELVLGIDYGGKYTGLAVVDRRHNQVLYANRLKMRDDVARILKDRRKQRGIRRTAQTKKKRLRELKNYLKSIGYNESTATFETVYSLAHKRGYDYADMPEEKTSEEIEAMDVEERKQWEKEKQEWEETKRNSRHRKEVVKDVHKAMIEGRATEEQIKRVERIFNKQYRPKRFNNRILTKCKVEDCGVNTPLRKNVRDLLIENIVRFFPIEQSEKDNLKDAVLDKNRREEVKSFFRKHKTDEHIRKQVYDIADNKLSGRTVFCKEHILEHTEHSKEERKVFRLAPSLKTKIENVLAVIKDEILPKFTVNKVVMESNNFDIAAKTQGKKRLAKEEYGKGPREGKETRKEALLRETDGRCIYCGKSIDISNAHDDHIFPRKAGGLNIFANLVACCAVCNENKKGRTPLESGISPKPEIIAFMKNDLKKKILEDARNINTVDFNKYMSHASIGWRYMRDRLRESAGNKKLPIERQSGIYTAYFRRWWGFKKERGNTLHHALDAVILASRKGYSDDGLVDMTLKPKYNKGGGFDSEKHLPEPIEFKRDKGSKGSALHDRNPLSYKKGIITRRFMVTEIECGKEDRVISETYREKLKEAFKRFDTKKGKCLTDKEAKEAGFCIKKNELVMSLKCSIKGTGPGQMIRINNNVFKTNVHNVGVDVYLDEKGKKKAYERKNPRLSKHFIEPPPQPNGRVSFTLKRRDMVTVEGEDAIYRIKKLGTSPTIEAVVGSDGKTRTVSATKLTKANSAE
As to the kind of experiment: cell_activity; PAM NGG; HEK293T. The conditions noted are these: tags: N- and C-terminal NLS. How it is done:
(§1) This Example describes indel assessment on mammalian targets using nuclease variants of Nuclease K comprising two or more substitutions identified as increasing indel activity in Example 8. 71 combination Nuclease K variants were tested.
(§2) Each Nuclease K variant and RNA guide (see Table 19) was cloned as described in Example 8. HEK293T cells were further transfected, followed by NGS analysis, as described in Example 8. For each target, indel ratios, referring to the percentage of NGS reads comprising indels, were calculated for the reference Nuclease K (SEQ ID NO: 65) and for each Nuclease K variant. The indel ratios shown in Table 20 were calculated as the average of two bioreplicates, each of which contained two technical replicates.

The target in series [1] is T4, Nuclease K D582R/I53R/T734R (D582R,I53R,T734R).
T4 chain: T3 chain with R42G, I53R, T734R
In words: cell_activity; PAM NGG; HEK293T. The settings on record: tags: N- and C-terminal NLS. As for the experimental part:
as §1, §2

Numbering of substitutions follows the chain as printed.

Take “GAGCCUGGUCCAUGGAGAGUGUCAACUACCCCCGUCUAAAGACGGAGGCAUGAGGUUUCGUAACCAAGUGUUGUACCUGCGGGUACAGUAGUUGAACAGGCGGCGAUGCGGCUGGGCACUCCAGGAUGCCACUCCCAGUCCCGGACACUGCCGACGAGCCGCAUCAAGCCGGGGGAGACCAACCGGCUAACGAUAGCCGAGCAAUUACCUAAAAAGAGGUGCAAAGGAAAUGGUAU / GAGCCTGGTCCATGGAGAGT / ACTCTCCATGGACCAGGCTC [Nuclease M VEGFA-T5 guide ; Nuclease M VEGFA-T5 target]”: the binding signal (fold vs Nuclease M) came to 1.6 in the series with Nuclease M P481R P481R and 1.77 in the series with Nuclease M E401R E401R.

B1: Nuclease K AAVS1-T3 guide ; AAVS1-T3 target (ssRNA ; dsDNA)
RNA: UUGUGAGAAUGGUGCGUCCUGUUACAGUUAAGGCUCUGAAAAGAGCCUUAAUUGUAAAACGCCUAUACAGUGAAGGGAUAUACGCUUGGGUUUGUCCAGCCUGAGCCUCUAUGCCAGAAAUGGCGCCUUCAUCGUGGGUUAGGACAUUUAAAUUUAAAAACUAUUCAGCACUGUUUGCUCUUGUCAGCUUGGUGGCAGA
DNA 1: TTGTGAGAATGGTGCGTCCT
DNA 2: AGGACGCACCATTCTCACAA
As for B1, the results for the activity (with Nuclease K D582R/G42R; in series [1]) were 0.221 indel ratio and 0.27 indel ratio, respectively.

B2: Nuclease K EMX1-T7 guide ; EMX1-T7 target (ssRNA ; dsDNA)
RNA: CUUUAGCAAGGGACUAUUCAGUUACAGUUAAGGCUCUGAAAAGAGCCUUAAUUGUAAAACGCCUAUACAGUGAAGGGAUAUACGCUUGGGUUUGUCCAGCCUGAGCCUCUAUGCCAGAAAUGGCGCCUUCAUCGUGGGUUAGGACAUUUAAAUUUAAAAACUAUUCAGCACUGUUUGCUCUUGUCAGCUUGGUGGCAGA
DNA 1: CTTTAGCAAGGGACTATTCA
DNA 2: TGAATAGTCCCTTGCTAAAG
Take B2: the activity with Nuclease K D582R/G42R is 0.231 indel ratio; in series [1], 0.25 indel ratio.

For the origin of these results see US20260275311, “CRISPR NUCLEASE POLYPEPTIDES AND GENE EDITING SYSTEMS COMPRISING SUCH” (ARBOR BIOTECHNOLOGIES, INC., published 2026).
